Publication PMC5693285

Experiments:
[1] = test system: His-VtrAN-ZIPm (Vibrio parahaemolyticus RIMD2210633?; ZIP from Saccharomyces cerevisiae GCN4); experiment: EMSA; conditions: EMSA: 10 mM Tris-HCl pH 7.5, 100 mM KCl, 1 mM DTT, 1 mM EDTA, 0.2% NP-40, 10% glycerol, 100 ng/ml BSA; 4 nM probe, protein 0-400 nM; 30 min room temperature; 6%
[2] = test system: His-VtrAN (Vibrio parahaemolyticus RIMD2210633?); experiment: EMSA; conditions: EMSA: 10 mM Tris-HCl pH 7.5, 100 mM KCl, 1 mM DTT, 1 mM EDTA, 0.2% NP-40, 10% glycerol, 100 ng/ml BSA; 4 nM probe, protein 0-400 nM; 30 min room temperature; 6%

Sequence: AGGGGCTATGCCCCTTTTATTTTTAATTCTCAAAGTTATCTTTTGAAGGTAATGGGGTATTTTTGAATAACTACATTGGGGTGTGATTGTCCTCGTTGTTTTTTAGTTTTTTTTAGGTTTTTTTTGCTGCTTTTCACGGTTTTATCATCACTTTATTCCGTGATTTAGCAAAATTCTTTTTAGGAGTTTGAAGTGGTCGTCTTCATTACCACGGCTTTAAGAACAGAGACGTTCTCTTTTAATCACAATAAATAACGAAGAAAAACTGTGAAAAGGGCTCAGCG (double strand) [vtrB upstream region 284 bp]
- binding [1]: > 400 nM
- binding [2]: > 400 nM
